The target of test [1] is melanocortin-4 receptor (zebrafish) (zebrafish) (UniProt B0V1P1). The test is described as follows: competition binding assay on cells.
For test [2] the target is unchanged. The test is described as follows: competition binding assay on cells. This is another data set of the same source.

Where two headings read alike, the source gives them in different places.

Chain of UniProt B0V1P1 (B0V1P1 whole entry): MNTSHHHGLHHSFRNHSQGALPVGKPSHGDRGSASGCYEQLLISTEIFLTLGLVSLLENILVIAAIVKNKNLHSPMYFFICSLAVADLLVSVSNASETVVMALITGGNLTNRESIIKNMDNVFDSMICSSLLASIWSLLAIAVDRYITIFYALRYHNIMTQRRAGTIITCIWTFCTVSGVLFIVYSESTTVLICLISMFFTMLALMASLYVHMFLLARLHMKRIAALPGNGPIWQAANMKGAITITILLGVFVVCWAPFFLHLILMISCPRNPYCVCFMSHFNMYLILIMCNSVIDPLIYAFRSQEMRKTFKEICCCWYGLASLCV

On to “α–melanocyte-stimulating hormone (peptide)”, for which the figures for the IC50 in test [1] and in test [2] were 50 nM and 45 nM, respectively.

For the origin of these results see PMC4255277.
